Measured values from patent US20220135701A1 (Genentech, published 2022).

T1: human MerTK (human, UniProt Q12866 26-499)
T1 construct: also called HuMER
T1 sequence: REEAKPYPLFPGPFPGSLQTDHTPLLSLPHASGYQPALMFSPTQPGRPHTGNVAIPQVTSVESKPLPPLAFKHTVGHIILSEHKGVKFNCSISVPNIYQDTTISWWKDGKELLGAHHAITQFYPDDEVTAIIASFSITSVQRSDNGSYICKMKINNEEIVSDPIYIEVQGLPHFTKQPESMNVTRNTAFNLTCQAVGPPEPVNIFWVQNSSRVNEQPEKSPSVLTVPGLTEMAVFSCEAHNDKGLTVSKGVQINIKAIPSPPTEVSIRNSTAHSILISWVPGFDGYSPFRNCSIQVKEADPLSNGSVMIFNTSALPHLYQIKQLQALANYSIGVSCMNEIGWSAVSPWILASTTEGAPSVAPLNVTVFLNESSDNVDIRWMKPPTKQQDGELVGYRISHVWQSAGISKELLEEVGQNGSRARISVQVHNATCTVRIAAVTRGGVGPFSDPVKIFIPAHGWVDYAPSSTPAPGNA

T2: cynomolgus monkey MerTK (cynomolgus monkey, UniProt A0A2K5V1H9 32-505)
T2 construct: Soluble analyte in SPR; also called Cyno MerTK
T2 sequence: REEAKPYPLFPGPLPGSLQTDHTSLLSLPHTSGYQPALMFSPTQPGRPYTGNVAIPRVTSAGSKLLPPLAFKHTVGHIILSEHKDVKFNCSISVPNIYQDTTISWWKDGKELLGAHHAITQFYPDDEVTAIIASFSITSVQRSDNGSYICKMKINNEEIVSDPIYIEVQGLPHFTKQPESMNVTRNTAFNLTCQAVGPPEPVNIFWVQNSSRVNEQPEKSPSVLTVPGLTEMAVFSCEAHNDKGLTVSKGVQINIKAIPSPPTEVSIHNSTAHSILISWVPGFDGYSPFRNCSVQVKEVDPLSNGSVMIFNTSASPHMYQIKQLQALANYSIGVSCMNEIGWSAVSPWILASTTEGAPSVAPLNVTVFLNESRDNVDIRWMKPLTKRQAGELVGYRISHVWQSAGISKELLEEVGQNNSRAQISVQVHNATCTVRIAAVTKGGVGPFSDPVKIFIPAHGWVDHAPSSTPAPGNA

T3: mouse MerTK (mouse, UniProt Q60805 23-496)
T3 construct: also called MuMER
T3 sequence (looked up): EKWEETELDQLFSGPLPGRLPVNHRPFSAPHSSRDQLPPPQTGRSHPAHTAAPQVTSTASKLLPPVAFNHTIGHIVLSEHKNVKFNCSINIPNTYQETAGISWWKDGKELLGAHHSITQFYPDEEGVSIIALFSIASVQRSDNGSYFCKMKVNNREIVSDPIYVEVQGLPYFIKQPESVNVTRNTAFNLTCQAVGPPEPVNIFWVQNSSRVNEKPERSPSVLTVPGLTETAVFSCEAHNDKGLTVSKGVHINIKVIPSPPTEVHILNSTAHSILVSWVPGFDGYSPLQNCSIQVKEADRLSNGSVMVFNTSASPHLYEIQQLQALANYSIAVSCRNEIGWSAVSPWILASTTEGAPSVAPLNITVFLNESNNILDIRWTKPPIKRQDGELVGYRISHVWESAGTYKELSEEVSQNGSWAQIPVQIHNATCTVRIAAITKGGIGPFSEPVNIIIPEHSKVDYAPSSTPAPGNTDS

T4: rat MerTK (rat, UniProt P57097 23-496, limits assumed)
T4 construct: Soluble analyte in SPR
T4 sequence (looked up): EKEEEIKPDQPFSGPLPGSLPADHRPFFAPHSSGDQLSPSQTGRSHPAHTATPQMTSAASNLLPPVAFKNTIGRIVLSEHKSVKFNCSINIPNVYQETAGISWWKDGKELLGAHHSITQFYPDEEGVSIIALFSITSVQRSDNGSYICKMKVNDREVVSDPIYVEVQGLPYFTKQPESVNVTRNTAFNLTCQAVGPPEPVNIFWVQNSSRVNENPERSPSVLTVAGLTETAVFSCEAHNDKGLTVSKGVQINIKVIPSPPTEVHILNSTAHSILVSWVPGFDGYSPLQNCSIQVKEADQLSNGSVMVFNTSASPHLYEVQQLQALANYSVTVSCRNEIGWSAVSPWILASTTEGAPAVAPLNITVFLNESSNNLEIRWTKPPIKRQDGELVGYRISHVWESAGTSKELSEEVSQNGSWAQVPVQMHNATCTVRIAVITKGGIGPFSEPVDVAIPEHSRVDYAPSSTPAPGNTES

T5: HuMER (R26-A499) (human, UniProt Q12866 26-499)
T5 construct: Extracellular domain with both Ig-like and both fibronectin-like domains; also called human MerTK extracellular domain
T5 sequence: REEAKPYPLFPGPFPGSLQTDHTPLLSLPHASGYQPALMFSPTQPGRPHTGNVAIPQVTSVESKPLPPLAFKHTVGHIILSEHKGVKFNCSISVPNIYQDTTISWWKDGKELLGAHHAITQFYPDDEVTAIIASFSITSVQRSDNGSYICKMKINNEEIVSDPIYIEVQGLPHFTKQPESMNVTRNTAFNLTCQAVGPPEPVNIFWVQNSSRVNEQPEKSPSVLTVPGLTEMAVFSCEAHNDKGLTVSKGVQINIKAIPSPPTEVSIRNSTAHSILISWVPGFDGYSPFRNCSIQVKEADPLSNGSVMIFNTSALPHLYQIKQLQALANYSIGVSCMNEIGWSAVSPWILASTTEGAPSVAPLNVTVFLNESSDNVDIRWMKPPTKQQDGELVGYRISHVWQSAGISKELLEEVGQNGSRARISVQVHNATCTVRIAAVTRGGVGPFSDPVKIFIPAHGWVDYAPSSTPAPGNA

T6: MuMER (E23-S496) (mouse, UniProt Q60805 23-496)
T6 construct: range 23-496; also called mouse MerTK extracellular domain
T6 sequence (looked up): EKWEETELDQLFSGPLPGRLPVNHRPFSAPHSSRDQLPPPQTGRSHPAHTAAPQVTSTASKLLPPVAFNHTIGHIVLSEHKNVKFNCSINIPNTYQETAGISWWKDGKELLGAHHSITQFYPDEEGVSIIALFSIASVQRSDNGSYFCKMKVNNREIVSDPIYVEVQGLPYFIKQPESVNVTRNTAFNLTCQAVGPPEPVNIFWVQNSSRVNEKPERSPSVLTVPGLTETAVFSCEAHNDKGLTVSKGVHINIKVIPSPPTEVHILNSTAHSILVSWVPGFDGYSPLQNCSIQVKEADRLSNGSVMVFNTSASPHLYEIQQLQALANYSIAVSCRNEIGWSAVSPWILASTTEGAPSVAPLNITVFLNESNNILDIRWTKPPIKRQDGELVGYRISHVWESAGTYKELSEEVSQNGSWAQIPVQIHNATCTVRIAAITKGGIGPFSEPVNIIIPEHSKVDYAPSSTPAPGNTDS

B1: Rbt10F7 (antibody, V domains shown)
VH: QSVEESGGRLVTPGTPLTLTCTVSGFSLSGYAMSWVRQAPGKGLEYIGVISSSGSSYYPSWAKGRFTISKTSTTVDLQITSPTTEDTATYFCARVQFYVGYAVYGYGIIDRLDLWGQGTLVTVSS
VL: AAVLTQTPSPVSATMGGTVSISCQSSKSVYNNNWLSWYQQKPGQPPKLLIYRASTLESGVPSRFKGSGSGTQFTLTISDVHCDDAATYFCAGGYSSSSSANAFGGGTEVVVK
notes: Recombinant rabbit monoclonal antibody, Expi293, protein A purified
B2: Rbt9E3.FN (antibody, V domains shown)
VH: QSVEESGGRLVTPGTPLTLTCTVSGFSLSSNAMSWVRQAPGKGLEWIGIISSSGSTYSASWAKGRFTISKTSTTMDLKITSPTTEDTATYFCARVGFFVGYGAYDYGIIHRLDLWGQGTLVTVSS
VL: AAVLTQTPSPVSAAVGGTVSISCQSSKSIYNNNWLSWYQQKPGQPPKLLIYDASDLASGVPSRFEGSGSGTEFTLTISDLECDDAATYYCAGGYSGDSDYAFGGGTEVVVK
notes: as for B1

Tests used:
[1] = target: T1, human MerTK; assay: SPR BIAcore T200, Ab captured, 25C
Procedure: (§1) All binding affinity determinations were obtained using Surface Plasmon Resonance (SPR) measurements from a BIAcore™-T200 instrument. Briefly, each rabbit or humanized antibody was captured to achieve approximately 100 RU (Response Units). Then, 3-fold serial dilutions of MerTK from various species (0.4 nM to 100 nM) diluted in HBS-EP buffer (0.01M HEPES pH 7.4, 0.15M NaCl, 3 mM EDTA and 0.05% v/v surfactant P20) was injected into the BIAcore™-T200 instrument at 25° C. or 37° C. with a flow rate of 30 μl/min. Association rates (kₒₙ) and dissociation rates (koff) were calculated using a simple one-to-one Langmuir binding model (BIAcore T200 evaluation software version 2.0). The equilibrium dissociation constant (KD) was calculated as the ratio koff/kₒₙ.

[2] = target: T2, cynomolgus monkey MerTK; assay: SPR BIAcore T200, Ab captured, 25C
Procedure: as §1

[3] = target: T3, mouse MerTK; assay: SPR BIAcore T200, Ab captured, 25C
Procedure: as §1

[4] = target: T1, human MerTK; assay: SPR BIAcore T200, Ab captured, 37C
Procedure: as §1

[5] = target: T2, cynomolgus monkey MerTK; assay: SPR BIAcore T200, Ab captured, 37C
Procedure: as §1

[6] = target: T4, rat MerTK; assay: SPR BIAcore T200, Ab captured, 37C
Procedure: as §1

[7] = target: T3, mouse MerTK; assay: SPR BIAcore T200, Ab captured, 37C
Procedure: as §1

[8] = target: T5, HuMER (R26-A499); assay: SPR BIAcore T200, Ab captured, 25C
Procedure: (§2) Binding affinity determinations were obtained using Surface Plasmon Resonance (SRP) measurements from a BIAcore™-T200 instrument. Briefly, each rabbit antibody was captured to achieve approximately 100 RU (Response Units). Then, 3-fold serial dilutions of the various MerTK domains (0.4 nM to 100 nM) diluted in HBS-EP buffer (0.01M HEPES pH 7.4, 0.15M NaCl, 3 mM EDTA and 0.05% v/v surfactant P20) was injected into the BIAcore™-T200 instrument at 25° C. or 37° C. with a flow rate of 30 μl/min. Association rates (kₒₙ) and dissociation rates (koff) were calculated using a simple one-to-one Langmuir binding model (BIAcore T200 evaluation software version 2.0). The equilibrium dissociation constant (KD) was calculated as the ratio koff/kₒₙ.
(§3) Antibody epitope determination was assessed by BIAcore analysis for rabbit antibodies binding against both the human and mouse MerTK extracellular domain (HuMER R26-A499 and MuMER E23-S496), Ig1&2 domain, Ig1-only domain, and Ig2-only domain (TABLE 18). Human MerTK and its domains are shown in light gray, while mouse MerTK and its domains are shown in dark gray.

[9] = target: T6, MuMER (E23-S496); assay: SPR BIAcore T200, Ab captured, 25C
Procedure: as §2, §3

Row | Kd [1] [nM] | Kd [2] [nM] | Kd [3] [nM] | Kd [4] [nM] | Kd [5] [nM] | Kd [6] [nM] | Kd [7] [nM] | Kd [8] [nM] | Kd [9] [nM] | Binder
1 | 7 | 4.7 | 4.1 | 10.9 | 5.1 | 5.8 | 2.4 | 7 | 4.1 | B1
2 | 2.6 | 2.5 | 0.6 | 5.1 | 2.5 | 1.7 | 0.6 | 2.6 | 0.6 | B2
